Laboratory results reported in patent US20250179215A1, “PLASMIN-BINDING VHHS” (RHEINISCHE FRIEDRICH-WILHELMS-UNIVERSITÄT BONN, priority 2022, published 2025).
Entries after “also recorded” stand apart in the source; their conditions may differ.

Columns and labels:
[1] = target: human plasmin (human, UniProt P00747 97-580; P00747 581-810); assay: cell-based or functional assay
[2] = target: T1, plasmin (Homo sapiens, UniProt P00747); assay: Activated factor V-inactivation assay (prothrombinase assay); assay type: biochemical; conditions: for FVa inactivation by plasmin reduced to % of normal: summary statement, concentration not given; for FVa inactivation rate reduced to: plasmin 1.5 nM, rate without VHH = 100%
T1 construct: human Lys-plasmin which is prepared from homogeneous Glu-plasminogen using uPA; purchased Haematologic Technologies, Inc. (Essex Junction, VT)
Experimental: FIG. 6. (A) Influence of VHHs on plasmin-mediated FVa cleavage. Plasmin (1.5 nM) was incubated with increasing concentrations of VHHs for 30 min at 37° C. After addition of FVa (30 pM) and further incubation for 30 min, FXa (0.52 pM), prothrombin (10 nM) and a fluorogenic thrombin substrate (100 μM) were added and the FVa-dependent thrombin generation was measured. The FVa inactivation rate measured in the absence of VHHs or plasmin inhibitors was set as 100%. […] The data are presented as mean±SD of two independent measurements.
Plasmin-mediated inactivation of activated factor V (FVa) was measured using a prothrombinase assay as recently described (Hamedani 2020). Briefly, 1.5 nM plasmin in assay buffer (20 mM Tris-HCl, 137 mM NaCl, 10 mg/ml phospholipids, 5 mM CaCl2, 1 mg/ml BSA, pH 7.4) was preincubated with VHHs (0.1 nM-10 μM final concentrations) for 30 min at 37° C. Then, 60 μl of the mixture were mixed with 60 μl of […] FVa. After further incubation for 30 min, 25 μl of the reaction mixture were mixed with 50 μl of 1.3 μM human FXa and 100 μM fluorogenic thrombin substrate (Boc-Asp(OBzl)-Pro-Arg-AMC) and 50 μl of 10 nM human prothrombin. Thrombin catalyzed substrate hydrolysis was monitored at λex of 360 nm and λem of 460 nm using the Synergy 2 microplate reader.

[3] = test system: citrate-anticoagulated whole blood; assay: Rotational thrombelastometry clot lysis in tPA-spiked whole blood; assay type: biochemical; conditions: for lysis index at 60 min: concentrations above 1.2 μM, decrease from 65%; for lysis index at 60 min / lysis onset time: tPA 0.5 μg/ml; for lysis onset time: reduced from 47.2 min
Description: To further test the fibrinolysis-activating properties of VHHs in an ex-vivo model of hyperfibrinolysis, a whole blood based assay can be used whereat citrate-anticoagulated whole blood in the presence of VHHs is spiked with tPA and clot formation and the fibrinolysis rate of the formed clot monitored by thrombelastometry after initiation of clotting by addition of CaCl2) solution containing recombinant TF.
FIG. 4. Influence of VHHs on endogenous fibrinolysis. (A) Citrate-anticoagulated whole blood was mixed with VHHs A11 or C5 and with tPA to achieve a final concentration of 0.5 μg/ml and clot formation was induced by addition of CaCl2) (0.2 M). (B) Lysis index at 60 min(C) Maximum lysis rates, and (D) lysis onset time were recorded. Mean values and SD were calculated out of three measurements.
(§1) The impact of VHHs on the fibrinolytic activity in plasma and whole blood was monitored using rotational thrombelastometry using the ROTEM delta system (TEM Innovations Ltd., Munich, Germany). […] After addition of 0.1 μg/ml tPA, coagulation was initiated by addition of recombinant tissue factor (Dade Innovin, Siemens Healthcare, Marburg, Germany) dissolved 1:100 in calcium chloride (0.2 M). The viscoelasticity of the formed clot was measured in terms of key parameters including clotting time, maximal clot firmness, maximum clot elasticity, maximum lysis, lysis index after 60 minutes, and lysis onset time.

[4] = test system: citrate-anticoagulated pooled normal human plasma; assay: Rotational thrombelastometry clot formation parameters in plasma; assay type: biochemical; conditions: VHHs or BPTI 2.4 μM, TXA 2.4 μg/ml; tPA 0.1 μg/ml
Experimental: FIG. 10. The impact of VHHs on the clot formation parameters in plasma monitored by rotational thrombelastometry. […] After addition of tPA to reach a final concentration of 0.1 μg/ml, coagulation was initiated by addition of recombinant tissue factor (Dade® Innovin®) dissolved 1:100 in calcium chloride solution (0.2 M). The viscoelasticity of the formed clot was measured in terms of (A) clotting time, (B) maximum clot firmness, and (C) maximum clot elasticity. A non-binder VHH (GFP-enhancer VHH) was used as negative control. Mean values and SD were calculated out of three measurements.
as §1

[5] = target: T1, plasmin; assay: Michaelis-Menten kinetics of plasmin-mediated cleavage of fluorogenic peptide substrate; assay type: biochemical; conditions: plasmin 5 nM; VHHs 1 μM, BPTI 3 nM, TXA 7.86 mg/ml; w/o ligand 51.8
Experimental: Subsequently, 50 μl of the fluorogenic substrate (3.16-3,160 μM final concentration in assay buffer) was added. Substrate hydrolysis rates were monitored by kinetic measurements using the Synergy 2 microplate reader. Apparent Michaelis-Menten constants (Km) and the turn-over number (kcat) values for substrate hydrolysis were calculated from best fit values of the Michaelis-Menten equation and the catalytic efficiencies were expressed as ratios of kcat/Km.
CI, confidence interval. ^a The turnover number (kcat) was calculated using Vmax values extracted from Michaelis-Menten least squares fit.

[6] = target: T2, mouse plasminogen (Mus musculus, UniProt P20918); assay: Biolayer Interferometry (BLI) binding of VHHs to mouse plasminogen; conditions: HIS-tagged VHH on biosensor
T2 construct: mouse Glu-plasminogen, mouse plasmin; purchased Haematologic Technologies, Inc. (Essex Junction, VT)
Experimental: (§2) VHHs binding affinities to human and mouse plasminogen/plasmin were assessed according to Biolayer Interferometry (BLI) using the BLItz system (Pall Life Sciences, Dreieich, Germany) and the Blitz 1.2 software package (Hamedani 2016). […] Afterward, the biosensor was lowered into a tube containing 500 μl of binding buffer to determine kd and koff. All measurements were performed at a shaking speed of 2,200 rpm.

[7] = target: T1, plasmin; assay: Influence on catalytic activity of plasmin with fluorogenic peptide substrate; assay type: biochemical; conditions: plasmin 5 nM; for increase in substrate conversion: at molar ratios of VHHs over plasmin of 158 (A11) and 500 (C5)
Experimental: FIG. 3. Effect of plasmin VHHs on the catalytic activity of plasmin for peptide substrates. […] Mean values and SD were calculated out of three measurements.
After incubation, 50 μl of the mixtures were transferred to the wells of black F16 Fluoronunc modules (Thermo Fisher Scientific [Nunc]). Subsequently, 50 μl of 800 μM PLM-specific fluorogenic peptide substrate in the assay buffer (H-Ala-Phe-Lys-AMC, Bachem) was added to the wells and the kinetics of plasmin-mediated substrate hydrolysis was monitored using the Synergy 2 microplate reader.

[8] = target: T1, plasmin; assay: Biolayer Interferometry (BLI) binding of VHHs to human plasmin; conditions: HIS-tagged VHH on biosensor
Experimental: as §2

[9] = target: T1, plasmin; assay: VHHs competition ELISA (plasmin binding to immobilized VHH); conditions: free VHH vs immobilized VHH; plasmin 10 nM
Experimental: FIG. 2. VHHs competition ELISA. The VHH (A) A11 or (B) C5 was immobilized in the microtiter plate by overnight incubation of 10 μg/ml VHH in 100 μl of coating buffer. […] Data represent the mean±SD of two measurements.
To assess the competition of VHHs for similar or overlapping binding sites on the plasmin molecule, a competition ELISA was performed. Microtiter (96-well) plates were coated with VHHs (10 μg/ml in coating buffer, 100 μl/well) at 2-8° C. overnight. Wells were washed and non-specific protein-binding sites were blocked with 20 mg/ml bovine serum albumine (BSA) for 2 h at RT. After removing the blocking buffer, wells were overlaid with a reaction mixture containing plasmin (10 nM) and VHHs (0.316 nM-31.6 μM) in buffer (20 mM HEPES, 154 mM NaCl, BSA 1 mg/ml, pH 7.4) for 30 min at RT. After washing the amount of bound plasmin was quantified through hydrolysis rates of the fluorogenic plasmin substrate (300 μM, 100 μl/well). The fluorescence intensity measured in the absence of free VHHs was set as 100%.

[10] = target: T3, plasminogen (Homo sapiens, UniProt P00747); assay: Plasmin generation assay (tPA-mediated plasminogen activation, purified system); assay type: biochemical; conditions: for inhibition of plasmin generation at higher concentrations: at the assessed / higher concentrations; for EC50: plasminogen 10 nM, tPA 10 nM, read-out: EC50 of tPA-induced plasmin generation
T3 construct: Plasma derived human Glu-plasminogen; purchased Haematologic Technologies, Inc. (plasminogen); Boehringer Ingelheim (tPA)
Experimental: In order to assess the influence of VHHs on tPA-mediated plasminogen activation, plasminogen was preincubated with increasing concentrations of VHHs. After addition of tPA, plasmin generation was measured over time using a fluorogenic plasmin peptide substrate.
FIG. 5. Influence of VHHs on tPA-mediated plasminogen activation. […] After addition of tPA (10 nM final concentration) plasmin generation was measured over time using the fluorogenic plasmin assay. The data are presented as mean±SD of three independent measurements.
Plasminogen (50 nM) was incubated with VHHs (2 μM to 0.2 μM) for 30 min at 37° C. in assay buffer. Subsequently, 20 μl of 50 nM tPA was added to the mixture and incubated at 37° C. After 3 hours of incubation at 37° C., 50 μl of the mixture were transferred to the wells of black F16 Fluoronunc modules and after addition of 50 μl of the plasmin-specific fluorogenic substrate (800 μM) fluorescence intensities were measured at λex of 360 nm and λem of 460 nm using the Synergy 2 microplate reader.

[11] = target: T4, tPA (Homo sapiens, UniProt P00750); assay: Biolayer Interferometry (BLI) binding of VHHs to tPA; conditions: HIS-tagged VHH on biosensor
T4 construct: purchased Boehringer Ingelheim (Biberach, Germany) Actilyse

[12] = target: Ocriplasmin (Homo sapiens, UniProt P00747); assay: Biolayer Interferometry (BLI) binding of VHHs to ocriplasmin (miniplasmin); conditions: HIS-tagged VHH on biosensor
Experimental: as §2

T3 sequence (P00747 20-810 limits assumed): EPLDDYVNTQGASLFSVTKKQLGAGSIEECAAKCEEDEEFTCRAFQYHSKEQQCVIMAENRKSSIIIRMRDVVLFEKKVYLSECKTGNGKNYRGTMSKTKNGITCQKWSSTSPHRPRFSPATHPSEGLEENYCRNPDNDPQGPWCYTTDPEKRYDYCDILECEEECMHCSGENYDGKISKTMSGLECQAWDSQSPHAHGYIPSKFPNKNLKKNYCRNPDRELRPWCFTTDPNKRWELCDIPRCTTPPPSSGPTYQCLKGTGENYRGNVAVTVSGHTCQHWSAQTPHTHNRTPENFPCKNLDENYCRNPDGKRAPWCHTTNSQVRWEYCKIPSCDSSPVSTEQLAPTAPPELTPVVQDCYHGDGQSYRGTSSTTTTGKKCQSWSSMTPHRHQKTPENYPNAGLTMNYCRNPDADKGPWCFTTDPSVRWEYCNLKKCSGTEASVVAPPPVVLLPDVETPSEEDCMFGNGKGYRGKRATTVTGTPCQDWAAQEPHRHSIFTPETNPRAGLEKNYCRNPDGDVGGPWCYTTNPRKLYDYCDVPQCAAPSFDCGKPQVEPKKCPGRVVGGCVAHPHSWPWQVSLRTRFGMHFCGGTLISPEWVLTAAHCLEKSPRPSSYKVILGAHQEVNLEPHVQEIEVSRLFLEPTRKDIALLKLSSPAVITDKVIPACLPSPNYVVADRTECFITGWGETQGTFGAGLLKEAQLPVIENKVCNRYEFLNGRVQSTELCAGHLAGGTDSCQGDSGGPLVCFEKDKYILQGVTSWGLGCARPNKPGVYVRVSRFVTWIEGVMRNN
T1 sequence (P00747 97-580 limits assumed): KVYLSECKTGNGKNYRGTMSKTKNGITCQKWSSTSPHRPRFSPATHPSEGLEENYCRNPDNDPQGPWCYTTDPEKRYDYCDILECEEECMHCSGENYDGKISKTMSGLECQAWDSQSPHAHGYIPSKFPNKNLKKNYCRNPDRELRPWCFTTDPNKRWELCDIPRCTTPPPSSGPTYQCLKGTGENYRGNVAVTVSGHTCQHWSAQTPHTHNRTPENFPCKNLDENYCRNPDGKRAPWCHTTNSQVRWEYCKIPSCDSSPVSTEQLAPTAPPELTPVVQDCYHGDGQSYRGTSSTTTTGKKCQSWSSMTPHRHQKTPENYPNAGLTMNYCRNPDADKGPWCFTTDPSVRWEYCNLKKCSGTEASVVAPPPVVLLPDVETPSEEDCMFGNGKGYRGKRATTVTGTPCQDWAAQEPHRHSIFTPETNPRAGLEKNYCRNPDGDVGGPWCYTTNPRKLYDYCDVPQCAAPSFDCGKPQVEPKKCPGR
T1 sequence (P00747 581-810 limits assumed): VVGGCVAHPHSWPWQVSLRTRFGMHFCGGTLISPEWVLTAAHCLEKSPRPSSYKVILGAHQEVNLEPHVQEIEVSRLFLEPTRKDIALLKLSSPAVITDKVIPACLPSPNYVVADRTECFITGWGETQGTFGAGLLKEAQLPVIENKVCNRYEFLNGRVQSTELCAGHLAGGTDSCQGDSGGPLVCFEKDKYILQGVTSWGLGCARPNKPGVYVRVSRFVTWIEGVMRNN
Sequence of Ocriplasmin (P00747 581-810 limits assumed, other chains not shown): as the sequence (P00747 581-810 limits assumed) above
T4 sequence (P00750 36-562): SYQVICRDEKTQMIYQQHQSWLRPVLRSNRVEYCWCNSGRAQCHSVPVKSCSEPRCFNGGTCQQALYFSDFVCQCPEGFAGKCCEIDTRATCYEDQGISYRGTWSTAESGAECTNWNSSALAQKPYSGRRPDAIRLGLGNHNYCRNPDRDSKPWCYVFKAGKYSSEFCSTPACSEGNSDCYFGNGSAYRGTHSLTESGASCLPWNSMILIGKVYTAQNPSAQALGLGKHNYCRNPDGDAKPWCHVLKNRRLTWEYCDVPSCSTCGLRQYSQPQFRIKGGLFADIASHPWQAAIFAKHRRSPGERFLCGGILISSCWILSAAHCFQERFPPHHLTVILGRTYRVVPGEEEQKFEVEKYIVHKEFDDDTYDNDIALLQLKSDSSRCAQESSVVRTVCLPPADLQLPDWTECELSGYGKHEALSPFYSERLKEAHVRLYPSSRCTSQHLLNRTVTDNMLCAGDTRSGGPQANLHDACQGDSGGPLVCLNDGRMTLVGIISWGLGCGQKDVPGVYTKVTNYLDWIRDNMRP
T2 sequence (P20918 20-812 limits assumed): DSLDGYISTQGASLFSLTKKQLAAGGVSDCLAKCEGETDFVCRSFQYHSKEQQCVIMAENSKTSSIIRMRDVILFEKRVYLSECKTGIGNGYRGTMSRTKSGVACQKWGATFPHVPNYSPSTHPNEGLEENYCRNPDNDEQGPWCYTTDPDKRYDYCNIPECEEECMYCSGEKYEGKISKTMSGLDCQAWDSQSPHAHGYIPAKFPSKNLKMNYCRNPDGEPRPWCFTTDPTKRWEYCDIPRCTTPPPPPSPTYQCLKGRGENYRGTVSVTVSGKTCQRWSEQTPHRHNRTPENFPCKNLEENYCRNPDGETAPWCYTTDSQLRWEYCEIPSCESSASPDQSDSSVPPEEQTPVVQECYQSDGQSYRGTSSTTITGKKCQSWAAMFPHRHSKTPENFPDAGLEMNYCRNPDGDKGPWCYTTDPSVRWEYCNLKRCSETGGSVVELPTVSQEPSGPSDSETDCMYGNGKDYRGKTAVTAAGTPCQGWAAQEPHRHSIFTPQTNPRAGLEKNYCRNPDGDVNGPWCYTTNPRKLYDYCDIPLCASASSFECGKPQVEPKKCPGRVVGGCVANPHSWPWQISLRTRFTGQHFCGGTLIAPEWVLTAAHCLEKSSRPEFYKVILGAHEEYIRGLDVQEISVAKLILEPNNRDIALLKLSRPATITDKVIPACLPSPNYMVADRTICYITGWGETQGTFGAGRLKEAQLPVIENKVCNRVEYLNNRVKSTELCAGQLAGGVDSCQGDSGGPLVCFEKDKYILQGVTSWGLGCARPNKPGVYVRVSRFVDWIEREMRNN
Sequence of human plasmin (P00747 97-580 limits assumed, chain 1 of 2): as the sequence (P00747 97-580 limits assumed) above
Sequence of human plasmin (P00747 581-810 limits assumed, chain 2 of 2): as the sequence (P00747 581-810 limits assumed) above

Molecule | FVa inactivation by plasmin reduced to % of normal [2] | kcat × 10^3 (s^−1) mean (95% CI) [5] | kD mouse plasminogen [6] | lysis index at 60 min [3] | lysis onset time [3] | increase in substrate conversion [7] | kD human plasmin [8] | competition of VHHs for binding site on plasmin molecule [9] | inhibition of plasmin generation at higher concentrations [10] | EC50 [10] | kD tPA [11] | further results
human alpha2-antiplasmin (from UniProt P08697 40-491) | – | – | – | – | – | – | – | – | – | – | – | residual plasmin activity after incubation with α2AP [1]: < 0.1%
Aprotinin [BPTI, reference compound] | 20% | 29.6 (29-30) s^−1 | – | – | – | – | – | – | – | – | – | maximal inhibition rate of plasmin-mediated cleavage of FVa ([2]; BPTI 10 μM): 26%; effect on lysis compared to VHHs (FIG. 4C, maximum lysis rates) ([3]; tPA-spiked whole blood): inhibition of lysis; effect on fibrin clot formation parameters (clotting time, maximum clot firmness, maximum clot elasticity) [4]: does not affect
VHH A11: Plasmin-binding alpaca VHH; variable domain SEQ ID NO: 9, or 11 with C-terminal His6-tag; CDRs SEQ ID NO: 1-3 (protein, A11 VHH) VHH: QVQLVETGGGLVQAGGSLRLSCAASGNIFSINAMDWYRQAPGKERELVAAITSGGTTNYADSVKGRFTISRDNAKDTVYLQMNSLKPEDAAFYYCNADGYYSDYDKNLAEFNSWGQGTQVTVSS | – | 67.2 (65-70) s^−1 | no reactivity | 0% | 10.3 min | approx. 2.5 fold | low nanomolar range | competed for the same or overlapping binding site | no inhibitory effect | 0.93 nM | weak binding | FVa inactivation rate reduced to ([2]; A11 concentrations above 10^-9 M): 60%; FVa inactivation by plasmin reduced to % of normal ([2]; listed as A11): 60%; molar ratio of VHHs over plasmin at which approx. 2.5-fold increase in substrate conversion was achieved ([7]; H-Ala-Phe-Lys-AMC): 158; kD Ocriplasmin ([12]; listed as A11): None of these VHHs bind; also recorded: n.b.*
VHH C5: Plasmin-binding alpaca VHH; variable domain SEQ ID NO: 10, or 20 with C-terminal His6-tag; CDRs SEQ ID NO: 4-6 (protein, C5 VHH) VHH: QVQLVESGGGLVQAGGSLRLSCAASGRRFMVVAMGWYRQAPGNQRELVASITNGGTTNYAGSVKGRFTISGDSAKNTVYLHMNSLKPEDTAVYYCTTDVVFRDGNGQIQSNWGQGTQVTVSS | 80% | 69.9 (68-72) s^−1 | no reactivity | 0% | 13.8 min | approx. 2.5 fold | low nanomolar range | competed for the same or overlapping binding site | no inhibitory effect | 2.3 nM | weak binding | FVa inactivation rate reduced to ([2]; C5 concentration of 3.16 nM or higher): 78%; kD Ocriplasmin ([12]; listed as C5): None of these VHHs bind and n.b.
